Source: patent US20240279356A1 (Xencor, published 2024)

Experiments:
cyno MSLN = target: T1, cyno MSLN (Macaca fascicularis (cynomolgus)); assay: Octet BLI; bsAb on anti-human Fc sensor, cyno MSLN as analyte, one concentration
T1 construct: soluble antigen for Octet; also called cynomolgus MSLN

human MSLN antigen [1] = target: T2, human MSLN antigen (human, UniProt Q13421 296-580, limits assumed); assay: Octet BLI on human MSLN antigen (Example 2B(a)); KD quoted in the FIG. 35 legend
T2 construct: Soluble antigen for BLI; also called Mesothelin; MESO
Source text: (§1) Variants of MESO-C were engineered by introducing point substitutions into the variable heavy region (VH) and the variable light region (VL) to generate 11 VH variants and 16 VL variants (sequences for which are depicted in FIG. 18 as H1.1-H1.13 and in FIG. 19 as L1.1-L1.18). An additional 4 VL variants were generated by combining useful point substitutions (sequences for which are depicted in FIG. 19 as L1.19-L1.22). WT and variant variable heavy regions were paired with WT and variant variable light regions to generate variant variable regions (Fvs) which were produced in the context of anti-MSLN×anti-CD3 bispecific antibodies. The bispecific antibodies were screened for MSLN binding affinity using Octet®, a BioLayer Interferometry (BLI)-based method. Experimental steps for Octet® generally include the following: Immobilization (capture of ligand to a biosensor); Association (dipping of ligand-coated biosensors into wells containing the analyte); and Dissociation (returning of biosensors to well containing buffer). In an initial screening, anti-human Fc sensors were used to capture the bispecific mAbs and dipped into human MSLN antigen (one concentration to screen large library). The resulting dissociation constant of illustrative variants (KD), association rate (kₐ), dissociation rate (kd), as well as sensorgram response are depicted in FIG. 20. In further screening of favorite variants identified in the initial screen (and combination variants), bispecific mAbs were dipped into multiple concentrations of human MSLN antigen, data for which are depicted in FIG. 21 (from various screens).

human MSLN antigen [2] = target: T2, human MSLN antigen; assay: Octet BLI; bsAb on anti-human Fc sensor, human MSLN as analyte, one concentration
Source text: as §1

[3] = target: T3, MSLN on OVCAR8 (MSLN^high) and other cancer cell lines (UniProt Q13421 296-598); assay: flow cytometry on OVCAR8 cells, detected with A647-labelled anti-human Fc mAb
T3 construct: whole, on cells; Endogenous surface MSLN; also called MSLN^high OVCAR8 cells; MSLN^low SKOV3 and HT29 cells
Method: Next, the effect of MSLN binding affinity was investigated. 100,000 OVCAR8 (MSLN^high) cells were treated with the indicated concentrations of the indicated test articles. […] Further, XENP32852 and XENP32853 which differ only in CD3 binding affinity have identical binding to OVCAR8 cells confirming that avid binding is due to the MSLN binding domain.

T2 sequence (Q13421 other isoform, or with tags, fused parts or gaps limits assumed): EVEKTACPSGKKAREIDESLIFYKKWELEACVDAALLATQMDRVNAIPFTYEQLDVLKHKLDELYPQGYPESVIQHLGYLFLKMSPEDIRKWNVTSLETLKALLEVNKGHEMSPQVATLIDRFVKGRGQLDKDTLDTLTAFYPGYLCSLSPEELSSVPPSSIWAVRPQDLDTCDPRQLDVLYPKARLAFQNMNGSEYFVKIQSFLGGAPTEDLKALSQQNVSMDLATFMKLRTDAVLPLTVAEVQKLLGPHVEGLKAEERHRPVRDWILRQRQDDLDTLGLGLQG
T3 sequence (Q13421 other isoform, or with tags, fused parts or gaps limits assumed): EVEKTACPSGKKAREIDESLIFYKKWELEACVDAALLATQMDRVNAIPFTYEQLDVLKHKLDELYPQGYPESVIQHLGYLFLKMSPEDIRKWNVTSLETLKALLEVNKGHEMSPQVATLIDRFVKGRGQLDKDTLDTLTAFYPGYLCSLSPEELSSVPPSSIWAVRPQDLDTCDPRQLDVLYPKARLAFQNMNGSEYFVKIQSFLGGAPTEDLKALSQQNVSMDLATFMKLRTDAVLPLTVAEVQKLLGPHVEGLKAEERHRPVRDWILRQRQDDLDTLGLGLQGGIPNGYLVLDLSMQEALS

B1: XENP32561 (bispecific antibody)
heavy: QVQLVQSGAEVKKPGASVKVSCKASGYTFTSYWMHWVRQAPGQGLEWMGMIHPNSDNTIYYEKFQGRVTMTVDKSISTAYMELSRLRSDDTAVYYCAIIITPVVPKFDYWGQGTLVTVSSASTKGPSVFPLAPSSKSTSGGTAALGCLVKDYFPEPVTVSWNSGALTSGVHTFPAVLQSSGLYSLSSVVTVPSSSLGTQTYICNVNHKPSDTKVDKKVEPKSCDKTHTCPPCPAPPVAGPSVFLFPPKPKDTLMISRTPEVTCVVVDVKHEDPEVKFNWYVDGVEVHNAKTKPREEEYNSTYRVVSVLTVLHQDWLNGKEYKCKVSNKALPAPIEKTISKAKGQPREPQVYTLPPSREEMTKNQVSLTCDVSGFYPSDIAVEWESDGQPENNYKTTPPVLDSDGSFFLYSKLTVDKSRWEQGDVFSCSVMHEALHNHYTQKSLSLSPGK
scFv-Fc: not shown
light: DIVMTQSPDSLAVSLGERATINCKASHSVGTSVAWYQQKPGQSPKLLIYWASTRHTGVPDRFTGSGSGTDFTLTISSLQAEDVAVYFCQQYSSYPLTFGAGTKLEIKRTVAAPSVFIFPPSDEQLKSGTASVVCLLNNFYPREAKVQWKVDNALQSGNSQESVTEQDSKDSTYSLSSTLTLSKADYEKHKVYACEVTHQGLSSPVTKSFNRGEC
notes: 1+1 Fab-scFv-Fc
Question: Which Kd (cyno MSLN) does the source give for B1 here?
Answer: 0.413 nM

Question: And the Response (cyno MSLN)?
Answer: 0.976

Question: What about the koff (cyno MSLN) of the same binder?
Answer: 0.000248 s⁻¹

Question: And the kon (cyno MSLN)?
Answer: 600000 M⁻¹ s⁻¹

Question: And the Kd (human MSLN antigen [1])?
Answer: 0.45 nM

Question: What about the Kd (human MSLN antigen [2]) of the same binder?
Answer: 0.355 nM

Question: And the Response (human MSLN antigen [2])?
Answer: 1.08

Question: What about the koff (human MSLN antigen [2]) of the same binder?
Answer: 0.000215 s⁻¹

Question: And the kon (human MSLN antigen [2])?
Answer: 606000 M⁻¹ s⁻¹

Question: And the “EC50 (read off the curve)” value [3]?
Answer: ~0.2 µg/mL

B2: XENP32853 (bispecific antibody)
heavy 1: QVQLVQSGAEVKKPGASVKVSCKASGYTFTSYWMHWVRQAPGQGLEWMGMIHPNSDNTIYYEKFQGRVTMTVDKSISTAYMELSRLRSDDTAVYYCAIIITPVVPKFDYWGQGTLVTVSSASTKGPSVFPLAPSSKSTSGGTAALGCLVKDYFPEPVTVSWNSGALTSGVHTFPAVLQSSGLYSLSSVVTVPSSSLGTQTYICNVNHKPSDTKVDKKVEPKSCDKTHTCPPCPAPPVAGPSVFLFPPKPKDTLMISRTPEVTCVVVDVKHEDPEVKFNWYVDGVEVHNAKTKPREEEYNSTYRVVSVLTVLHQDWLNGKEYKCKVSNKALPAPIEKTISKAKGQPREPQVYTLPPSREEMTKNQVSLTCDVSGFYPSDIAVEWESDGQPENNYKTTPPVLDSDGSFFLYSKLTVDKSRWEQGDVFSCSVMHEALHNHYTQKSLSLSPGK
heavy 2: QVQLVQSGAEVKKPGASVKVSCKASGYTFTSYWMHWVRQAPGQGLEWMGMIHPNSDNTIYYEKFQGRVTMTVDKSISTAYMELSRLRSDDTAVYYCAIIITPVVPKFDYWGQGTLVTVSSASTKGPSVFPLAPSSKSTSGGTAALGCLVKDYFPEPVTVSWNSGALTSGVHTFPAVLQSSGLYSLSSVVTVPSSSLGTQTYICNVNHKPSNTKVDKKVEPKSCGGGGSGGGGSQAVVTQEPSLTVSPGGTVTLTCGSSTGAVTTSNYANWVQQKPGKSPRGLIGGTNKRAPGVPARFSGSLLGGKAALTISGAQPEDEADYYCALWYSNHWVFGGGTKLTVLGKPGSGKPGSGKPGSGKPGSEVQLVESGGGLVQPGGSLRLSCAASGFTFSTYAMNWVRQAPGKGLEWVGRIRSKYNNYATYYADSVKGRFTISRDDSKNTLYLQMNSLRAEDTAVYYCVRHGNFGDEYVSWFAYWGQGTLVTVSSEPKSSDKTHTCPPCPAPPVAGPSVFLFPPKPKDTLMISRTPEVTCVVVDVKHEDPEVKFNWYVDGVEVHNAKTKPREEQYNSTYRVVSVLTVLHQDWLNGKEYKCKVSNKALPAPIEKTISKAKGQPREPQVYTLPPSREQMTKNQVKLTCLVKGFYPSDIAVEWESNGQPENNYKTTPPVLDSDGSFFLYSKLTVDKSRWQQGNVFSCSVMHEALHNHYTQKSLSLSPGK
light: DIVMTQSPDSLAVSLGERATINCKASHDVGTSVAWYQQKPGQSPKLLIYWASTRHTGVPDRFTGSGSGTDFTLTISSLQAEDVAVYFCQQYYSYPLTFGAGTKLEIKRTVAAPSVFIFPPSDEQLKSGTASVVCLLNNFYPREAKVQWKVDNALQSGNSQESVTEQDSKDSTYSLSSTLTLSKADYEKHKVYACEVTHQGLSSPVTKSFNRGEC
notes: 2+1 Fab2-scFv-Fc; copies: 1 + 1 + 2
Question: How did the Kd (human MSLN antigen [1]) turn out when B2 was run?
Answer: 3.9 nM

Question: What about the “EC50 (read off the curve)” value [3] of the same binder?
Answer: ~0.06 µg/mL

B3: XENP32852 (bispecific antibody)
heavy 1: QVQLVQSGAEVKKPGASVKVSCKASGYTFTSYWMHWVRQAPGQGLEWMGMIHPNSDNTIYYEKFQGRVTMTVDKSISTAYMELSRLRSDDTAVYYCAIIITPVVPKFDYWGQGTLVTVSSASTKGPSVFPLAPSSKSTSGGTAALGCLVKDYFPEPVTVSWNSGALTSGVHTFPAVLQSSGLYSLSSVVTVPSSSLGTQTYICNVNHKPSDTKVDKKVEPKSCDKTHTCPPCPAPPVAGPSVFLFPPKPKDTLMISRTPEVTCVVVDVKHEDPEVKFNWYVDGVEVHNAKTKPREEEYNSTYRVVSVLTVLHQDWLNGKEYKCKVSNKALPAPIEKTISKAKGQPREPQVYTLPPSREEMTKNQVSLTCDVSGFYPSDIAVEWESDGQPENNYKTTPPVLDSDGSFFLYSKLTVDKSRWEQGDVFSCSVMHEALHNHYTQKSLSLSPGK
heavy 2: QVQLVQSGAEVKKPGASVKVSCKASGYTFTSYWMHWVRQAPGQGLEWMGMIHPNSDNTIYYEKFQGRVTMTVDKSISTAYMELSRLRSDDTAVYYCAIIITPVVPKFDYWGQGTLVTVSSASTKGPSVFPLAPSSKSTSGGTAALGCLVKDYFPEPVTVSWNSGALTSGVHTFPAVLQSSGLYSLSSVVTVPSSSLGTQTYICNVNHKPSNTKVDKKVEPKSCGGGGSGGGGSQAVVTQEPSLTVSPGGTVTLTCGSSTGAVTTSNYANWVQQKPGKSPRGLIGGTNKRAPGVPARFSGSLLGGKAALTISGAQPEDEADYYCALWYSNHWVFGGGTKLTVLGKPGSGKPGSGKPGSGKPGSEVQLVESGGGLVQPGGSLRLSCAASGFTFSTYAMNWVRQAPGKGLEWVGRIRSKANNYATYYADSVKGRFTISRDDSKNTLYLQMNSLRAEDTAVYYCVRHGNFGDSYVSWFAYWGQGTLVTVSSGGGGSGGGGSKTHTCPPCPAPPVAGPSVFLFPPKPKDTLMISRTPEVTCVVVDVKHEDPEVKFNWYVDGVEVHNAKTKPREEQYNSTYRVVSVLTVLHQDWLNGKEYKCKVSNKALPAPIEKTISKAKGQPREPQVYTLPPSREQMTKNQVKLTCLVKGFYPSDIAVEWESNGQPENNYKTTPPVLDSDGSFFLYSKLTVDKSRWQQGNVFSCSVMHEALHNHYTQKSLSLSPGK
light: DIVMTQSPDSLAVSLGERATINCKASHDVGTSVAWYQQKPGQSPKLLIYWASTRHTGVPDRFTGSGSGTDFTLTISSLQAEDVAVYFCQQYYSYPLTFGAGTKLEIKRTVAAPSVFIFPPSDEQLKSGTASVVCLLNNFYPREAKVQWKVDNALQSGNSQESVTEQDSKDSTYSLSSTLTLSKADYEKHKVYACEVTHQGLSSPVTKSFNRGEC
notes: as for B2
Question: With B3 as the binder, how does the Kd (human MSLN antigen [1]) read?
Answer: 3.9 nM

Question: What about the “EC50 (read off the curve)” value [3] of the same binder?
Answer: ~0.06 µg/mL

B4: XENP32751 (bispecific antibody)
heavy: QVQLVQSGAEVKKPGASVKVSCKASGYTFTSYWMHWVRQAPGQGLEWMGMIHPNSDNTIYYEKFQGRVTMTVDKSISTAYMELSRLRSDDTAVYYCAIIITPVVPKFDYWGQGTLVTVSSASTKGPSVFPLAPSSKSTSGGTAALGCLVKDYFPEPVTVSWNSGALTSGVHTFPAVLQSSGLYSLSSVVTVPSSSLGTQTYICNVNHKPSDTKVDKKVEPKSCDKTHTCPPCPAPPVAGPSVFLFPPKPKDTLMISRTPEVTCVVVDVKHEDPEVKFNWYVDGVEVHNAKTKPREEEYNSTYRVVSVLTVLHQDWLNGKEYKCKVSNKALPAPIEKTISKAKGQPREPQVYTLPPSREEMTKNQVSLTCDVSGFYPSDIAVEWESDGQPENNYKTTPPVLDSDGSFFLYSKLTVDKSRWEQGDVFSCSVMHEALHNHYTQKSLSLSPGK
Fab-scFv-Fc: QVQLVQSGAEVKKPGASVKVSCKASGYTFTSYWMHWVRQAPGQGLEWMGMIHPNSDNTIYYEKFQGRVTMTVDKSISTAYMELSRLRSDDTAVYYCAIIITPVVPKFDYWGQGTLVTVSSASTKGPSVFPLAPSSKSTSGGTAALGCLVKDYFPEPVTVSWNSGALTSGVHTFPAVLQSSGLYSLSSVVTVPSSSLGTQTYICNVNHKPSNTKVDKKVEPKSCGGGGSGGGGSQAVVTQEPSLTVSPGGTVTLTCGSSTGAVTTSNYANWVQQKPGKSPRGLIGGTNKRAPGVPARFSGSLLGGKAALTISGAQPEDEADYYCALWYSNHWVFGGGTKLTVLGKPGSGKPGSGKPGSGKPGSEVQLVESGGGLVQPGGSLRLSCAASGFTFSTYAMNWVRQAPGKGLEWVGRIRSKANNYATYYADSVKGRFTISRDDSKNTLYLQMNSLRAEDTAVYYCVRHGNFGDSYVSWFAYWGQGTLVTVSSGGGGSGGGGSKTHTCPPCPAPPVAGPSVFLFPPKPKDTLMISRTPEVTCVVVDVKHEDPEVKFNWYVDGVEVHNAKTKPREEQYNSTYRVVSVLTVLHQDWLNGKEYKCKVSNKALPAPIEKTISKAKGQPREPQVYTLPPSREQMTKNQVKLTCLVKGFYPSDIAVEWESNGQPENNYKTTPPVLDSDGSFFLYSKLTVDKSRWQQGNVFSCSVMHEALHNHYTQKSLSLSPGK
light: DIVMTQSPDSLAVSLGERATINCKASHDVGTYVAWYQQKPGQSPKLLIYWASTRHTGVPDRFTGSGSGTDFTLTISSLQAEDVAVYFCQQYSSYPLTFGAGTKLEIKRTVAAPSVFIFPPSDEQLKSGTASVVCLLNNFYPREAKVQWKVDNALQSGNSQESVTEQDSKDSTYSLSSTLTLSKADYEKHKVYACEVTHQGLSSPVTKSFNRGEC
notes: as for B2
Question: Which results are given for B4?
Answer: Kd (human MSLN antigen [1]): ~12.8 nM; EC50 (read off the curve) [3]: ~0.05 µg/mL
